According to patent publication US20120244131:

Test system: T1, SC_RAG single-chain meganuclease (I-CreI derived) (artificial sequence)
T1 sequence: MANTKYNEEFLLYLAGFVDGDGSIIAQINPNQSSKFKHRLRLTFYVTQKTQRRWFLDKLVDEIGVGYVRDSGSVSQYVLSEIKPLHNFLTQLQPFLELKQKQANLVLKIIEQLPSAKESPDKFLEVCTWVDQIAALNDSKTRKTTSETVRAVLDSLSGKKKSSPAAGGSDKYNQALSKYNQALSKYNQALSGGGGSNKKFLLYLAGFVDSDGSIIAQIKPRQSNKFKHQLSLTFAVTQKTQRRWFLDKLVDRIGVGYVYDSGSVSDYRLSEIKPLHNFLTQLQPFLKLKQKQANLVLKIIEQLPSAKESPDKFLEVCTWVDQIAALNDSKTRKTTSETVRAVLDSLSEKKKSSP
Experiment: cell_activity
Conditions: endogenous locus in 293H, siRNA control AS, deep sequencing, +/-0.13

Work on “endogenous human RAG1 locus target of SC_RAG” yielded an activity (% NHEJ mutagenesis) of 0.66.
